Experimental findings from publication PMC11053110 (Nature Communications, 2024) are described below.

For the assay, the target named is T1, GST-tagged IRF3 (human, UniProt Q14653 1-427).
T1 construct: also called GST-IRF3
T1 sequence (looked up): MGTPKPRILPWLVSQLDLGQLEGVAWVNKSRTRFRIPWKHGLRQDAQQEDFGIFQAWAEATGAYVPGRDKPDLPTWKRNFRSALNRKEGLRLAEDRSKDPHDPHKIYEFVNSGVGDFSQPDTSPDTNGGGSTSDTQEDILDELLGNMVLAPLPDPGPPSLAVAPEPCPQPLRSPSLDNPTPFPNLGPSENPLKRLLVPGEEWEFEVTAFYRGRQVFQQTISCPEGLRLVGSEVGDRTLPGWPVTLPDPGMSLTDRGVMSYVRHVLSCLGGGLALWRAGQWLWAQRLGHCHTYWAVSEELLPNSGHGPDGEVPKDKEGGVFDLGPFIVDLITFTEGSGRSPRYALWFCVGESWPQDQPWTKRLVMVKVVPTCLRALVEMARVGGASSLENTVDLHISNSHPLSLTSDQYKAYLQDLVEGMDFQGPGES
The assay is described as follows: pull-down. The settings on record: both partners purified.

B1: His-tagged EGLN1 (enzyme, human, UniProt Q9GZT9 1-426, looked up)
chain: MANDSGGPGGPSPSERDRQYCELCGKMENLLRCSRCRSSFYCCKEHQRQDWKKHKLVCQGSEGALGHGVGPHQHSGPAPPAAVPPPRAGAREPRKAAARRDNASGDAAKGKVKAKPPADPAAAASPCRAAAGGQGSAVAAEAEPGKEEPPARSSLFQEKANLYPPSNTPGDALSPGGGLRPNGQTKPLPALKLALEYIVPCMNKHGICVVDDFLGKETGQQIGDEVRALHDTGKFTDGQLVSQKSDSSKDIRGDKITWIEGKEPGCETIGLLMSSMDDLIRHCNGKLGSYKINGRTKAMVACYPGNGTGYVRHVDNPNGDGRCVTCIYYLNKDWDAKVSGGILRIFPEGKAQFADIEPKFDRLLFFWSDRRNPHEVQPAYATRYAITVWYFDADERARAKVKYLTGEKGVRVELNKPSDSVGKDVF
notes: also called His-EGLN1
Regarding B1, the binding result is on record as “binds”.
